Reference: paper PMC5669894

Legend:
[1] = target: C-terminal SH3 domain of the growth factor receptor-bound protein 2 (Grb2) (UniProt P62993); test: stopped-flow binding kinetics (intrinsic fluorescence); pseudo-first order; Grb2 SH3C constant at 0.5 μM, Gab2 503-524 peptide 1-10 μM (1-12 μM for P519A); 10°C; 25mM HEPES, 100mM potassium acetate, pH 7.5; apparent association and dissociation rate constants
[2] = target: C-terminal SH3 domain of the growth factor receptor-bound protein 2 (Grb2) (UniProt P62993); test: stopped-flow displacement kinetics (intrinsic fluorescence); pre-incubated complex of wild type Grb2 SH3C (10 μM) and Gab2 503-524 (10 μM) mixed with excess Grb2 SH3C W35Y/W36Y (100 μM and 200 μM); 25°C; 25mM HEPES, 100mM potassium acetate, pH 7.5

Sequence of Gab2 503-524 peptide, wild type (Q9UQC2 503-524): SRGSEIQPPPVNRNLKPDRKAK

| Kd [1] [µM] | koff [2] [s⁻¹] | koff [1] [s⁻¹] | kon [1] [M⁻¹ s⁻¹] | Substance |
| --- | --- | --- | --- | --- |
| 2.5 | – | – | – | Gab2 503-524 peptide, variant P510A |
| 2.5 | – | – | – | Gab2 503-524 peptide, variant P512A |
| 12 | – | – | – | Gab2 503-524 peptide, variant P519A |
| – | 350 | 53 | 4.3e+07 | Gab2 503-524 peptide, wild type |
